# Reference: paper PMC10872772
# T1: GST-PXR LBD protein (human)
# T1 sequence (O75469 whole entry, species assumed, looked up): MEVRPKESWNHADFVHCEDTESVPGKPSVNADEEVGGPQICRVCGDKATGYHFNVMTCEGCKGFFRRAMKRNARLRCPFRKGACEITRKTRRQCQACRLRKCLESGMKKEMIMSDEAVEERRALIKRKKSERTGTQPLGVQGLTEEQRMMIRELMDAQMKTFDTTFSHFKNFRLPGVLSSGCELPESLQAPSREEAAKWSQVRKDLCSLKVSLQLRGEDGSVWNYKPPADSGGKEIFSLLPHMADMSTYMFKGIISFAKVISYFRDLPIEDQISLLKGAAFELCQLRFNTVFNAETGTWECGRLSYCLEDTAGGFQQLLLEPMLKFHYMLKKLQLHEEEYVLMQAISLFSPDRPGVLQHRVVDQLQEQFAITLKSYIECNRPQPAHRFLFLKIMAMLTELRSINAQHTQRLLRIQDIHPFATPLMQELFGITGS
# T2: GST-LXRβ LBD (human)
# T2 sequence (P55055 whole entry, looked up): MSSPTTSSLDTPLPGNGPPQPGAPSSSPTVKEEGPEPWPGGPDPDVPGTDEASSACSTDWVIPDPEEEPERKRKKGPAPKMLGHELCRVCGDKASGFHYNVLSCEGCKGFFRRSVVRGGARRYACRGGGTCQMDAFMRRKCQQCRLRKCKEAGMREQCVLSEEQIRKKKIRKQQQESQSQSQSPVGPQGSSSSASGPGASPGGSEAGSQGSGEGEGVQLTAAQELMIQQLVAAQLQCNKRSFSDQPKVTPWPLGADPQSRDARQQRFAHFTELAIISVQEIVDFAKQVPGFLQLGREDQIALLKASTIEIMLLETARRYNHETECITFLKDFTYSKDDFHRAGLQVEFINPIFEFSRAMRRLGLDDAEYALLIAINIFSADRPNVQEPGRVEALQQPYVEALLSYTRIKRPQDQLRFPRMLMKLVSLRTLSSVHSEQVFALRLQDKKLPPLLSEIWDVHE
# T3: GST-LXRα LBD (human)
# T3 sequence (Q13133 whole entry, looked up): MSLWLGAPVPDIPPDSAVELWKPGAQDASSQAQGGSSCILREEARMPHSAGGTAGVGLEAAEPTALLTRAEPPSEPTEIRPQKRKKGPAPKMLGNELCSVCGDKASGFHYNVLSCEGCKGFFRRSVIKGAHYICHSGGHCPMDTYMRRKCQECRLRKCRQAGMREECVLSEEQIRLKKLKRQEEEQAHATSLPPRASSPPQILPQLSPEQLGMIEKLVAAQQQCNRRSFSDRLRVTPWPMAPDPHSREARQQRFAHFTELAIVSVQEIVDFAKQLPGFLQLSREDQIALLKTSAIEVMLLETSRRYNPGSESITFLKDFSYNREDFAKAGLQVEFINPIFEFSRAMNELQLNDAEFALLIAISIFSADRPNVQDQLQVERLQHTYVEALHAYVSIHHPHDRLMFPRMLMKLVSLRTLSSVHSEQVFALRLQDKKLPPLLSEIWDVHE
# B1: FAM-SRC1-B peptide (peptide)
# peptide: {FAM-(PEG)5}-CPSSHSSLTERHKILHRLLQEGSPS-NH2
# Columns and labels:
# Assay in all cases: FRET or BRET
# Set-up in all cases: unit not given beside the values
# [1] = target: T1, GST-PXR LBD protein (human)
# GST-LXRβ LBD (human) = target: T2, GST-LXRβ LBD (human)
# GST-LXRα LBD (human) = target: T3, GST-LXRα LBD (human)
binder,measurement,setting,value
B1,AUC of SRC-1 recruitment (TR-FRET) with SJPYT-299,[1],102
same,AUC of SRC-1 recruitment (TR-FRET) with SJPYT-300,[1],102
same,AUC of SRC-1 recruitment (TR-FRET) with SJPYT-301,[1],129
same,AUC of SRC-1 recruitment (TR-FRET) with SJPYT-302,[1],102
same,AUC of SRC-1 recruitment (TR-FRET) with SJPYT-303,[1],134
same,AUC of SRC-1 recruitment (TR-FRET) with SJPYT-304,[1],113
same,AUC of SRC-1 recruitment (TR-FRET) with SJPYT-305,[1],161
same,AUC of SRC-1 recruitment (TR-FRET) with SJPYT-315,[1],57.4
same,AUC of SRC-1 recruitment (TR-FRET) with SJPYT-316,[1],38.7
same,AUC of SRC-1 recruitment (TR-FRET) with SJPYT-317,[1],39.5
same,AUC of SRC-1 recruitment (TR-FRET) with SJPYT-318,[1],47.1
same,AUC of SRC-1 recruitment (TR-FRET) with SJPYT-319,[1],23.6
same,AUC of SRC-1 recruitment (TR-FRET) with T0901317,[1],124
same,AUC of SRC-1 recruitment (TR-FRET) with SJPYT-299,GST-LXRβ LBD (human),133
same,AUC of SRC-1 recruitment (TR-FRET) with SJPYT-300,GST-LXRβ LBD (human),136
same,AUC of SRC-1 recruitment (TR-FRET) with SJPYT-301,GST-LXRβ LBD (human),154
same,AUC of SRC-1 recruitment (TR-FRET) with SJPYT-302,GST-LXRβ LBD (human),149
same,AUC of SRC-1 recruitment (TR-FRET) with SJPYT-303,GST-LXRβ LBD (human),120
same,AUC of SRC-1 recruitment (TR-FRET) with SJPYT-304,GST-LXRβ LBD (human),125
same,AUC of SRC-1 recruitment (TR-FRET) with SJPYT-305,GST-LXRβ LBD (human),76.1
same,AUC of SRC-1 recruitment (TR-FRET) with SJPYT-315,GST-LXRβ LBD (human),117
same,AUC of SRC-1 recruitment (TR-FRET) with SJPYT-316,GST-LXRβ LBD (human),144
same,AUC of SRC-1 recruitment (TR-FRET) with SJPYT-317,GST-LXRβ LBD (human),71.3
same,AUC of SRC-1 recruitment (TR-FRET) with SJPYT-318,GST-LXRβ LBD (human),21.8
same,AUC of SRC-1 recruitment (TR-FRET) with SJPYT-319,GST-LXRβ LBD (human),21.5
same,AUC of SRC-1 recruitment (TR-FRET) with T0901317,GST-LXRβ LBD (human),202
same,AUC of SRC-1 recruitment (TR-FRET) with SJPYT-299,GST-LXRα LBD (human),67.1
same,AUC of SRC-1 recruitment (TR-FRET) with SJPYT-300,GST-LXRα LBD (human),80.2
same,AUC of SRC-1 recruitment (TR-FRET) with SJPYT-301,GST-LXRα LBD (human),95.1
same,AUC of SRC-1 recruitment (TR-FRET) with SJPYT-302,GST-LXRα LBD (human),108
same,AUC of SRC-1 recruitment (TR-FRET) with SJPYT-303,GST-LXRα LBD (human),63.6
same,AUC of SRC-1 recruitment (TR-FRET) with SJPYT-304,GST-LXRα LBD (human),59.5
same,AUC of SRC-1 recruitment (TR-FRET) with SJPYT-305,GST-LXRα LBD (human),33.4
same,AUC of SRC-1 recruitment (TR-FRET) with SJPYT-315,GST-LXRα LBD (human),62.3
same,AUC of SRC-1 recruitment (TR-FRET) with SJPYT-316,GST-LXRα LBD (human),60.8
same,AUC of SRC-1 recruitment (TR-FRET) with SJPYT-317,GST-LXRα LBD (human),27.2
same,AUC of SRC-1 recruitment (TR-FRET) with T0901317,GST-LXRα LBD (human),122
